Key:
[1] = tested on: Jurkat cells; assay: Cell proliferation, Cell Counting Kit-8; type: cell-based, human; conditions: 10 μg expression plasmid; Jurkat cells versus HEL cells and 293 cells
Procedure: 10 μg of a plasmid for the expression of wild-type HDAC4 and the HDAC4 dominant negative variant (H863L) prepared in Example 6 was transfected to Jurkat cells, HEL cells and 293 cells.
1×10^7 Jurkat cells (ATCC, TIB-152) were transformed by the electroporation method (BIO-RAD, Gene Pulser II, voltage 300 V, charge 975 μF, 400 μL). After transformation, 2.5 mL of RPMI 1640 containing 10% FBS (MOREGATE) (10% FBS RPMI 1640) was added, and this mixture was dispensed to a 96-well white plate in a ratio of 50 μL/well. After cultivation under conditions of 37° C., 5% CO2 and saturated humidity for 5 hours, a liquid mixture of Phorbol 12-Myristate 13-Acetate (PMA, SIGMA), Ionomycin (SIGMA) and Anti-CD28 antibody (Pharmingen) in 10% FBS RPMI 1640 was added at 50 μL/well (the final concentrations were 50 ng/mL, 1 μg/mL and 75 ng/mL, respectively) to stimulate the Jurkat cells. After cultivation under conditions of 37° C., 5% CO2 and saturated humidity for 4 hours, the number of cell was confirmed using the Cell Counting Kit-8 (DOJIN) 8.75×10^6 HEL cells (accession number JCRBOO62, JCRB) were transformed by the electroporation method (BIO-RAD, Gene Pulser II, voltage 1750 V, charge 10 μF, 365 μL). After transformation, 2 mL of 10% FBS RPMI 1640 was added, and this mixture was dispensed to a 96-well white plate in a ratio of 50 μL/well. […]

[2] = tested on: N-CoR and HDAC3; assay: Complex forming ability, anti-Flag purification and Western blotting; type: binding, human; conditions: expressed in PEAK Rapid cells; compared to wild-type HDAC4
[3] = tested on: histone; assay: HDAC activity with [3H]-labeled acetylated histone as a substrate; type: biochemical, human; conditions: expressed in 293T cells, crudely purified; compared to wild-type HDAC4
Procedure: 7 μg of a plasmid for the expression of wild-type HDAC4 and HDAC4 dominant negative variants (H802K, H803L, H863L) was transfected to 293T cells by the calcium phosphate method; 48 hours later, whole cell lysate (cells were disrupted in 25 mM Tris, pH 7.4, 150 mM NaCl, 1 mM CaCl2, 1% Triton X-100, and cell debris was removed by centrifugation) was crudely purified using an anti-Flag antibody column (SIGMA, anti-Flag M2-agarose) (washed with TBS, then eluted with 0.1M Glysine-HCl, pH 3.5), and used for the measurement of HDAC activity. The reaction substrate used was a [^3H]-labeled acetylated histone prepared by cultivating Jurkat cells (2×10^8 cells) in 40 mL of an RPMI (SIGMA) medium containing 300 MBq [^3H] sodium acetate (NENTM Life Science Products, Inc.) for 2 hours, disrupting the cells in Lysis buffer, pH 6.5 (10 mM Tris-HCl, 50 mM Sodium Hydrogen sulfate, 1% Triton X-100, 10 mM MgCl2-6H2O, 8.6% Sucrose), washing the cells with Wash buffer (10 mM Tris-HCl, 13 mM EDTA), and then adding 0.4N H2SO4.

B1: HDAC4 dominant negative variant (H863L): HDAC4 variant with H863L mutation, amino acid sequence SEQ ID NO:6, expressed from plasmid (protein, listed as Homo sapiens)
chain: MSSQSHPDGLSGRDQPVELLNPARVNHMPSTVDVATALPLQVAPSAVPMDLRLDHQFSLPVAEPALREQQLQQELLALKQKQQIQRQILIAEFQRQHEQLSRQHEAQLHEHIKQQQEMLAMKHQQELLEHQRKLERHRQEQELEKQHREQKLQQLKNKEKGKESAVASTEVKMKLQEFVLNKKKALAHRNLNHCISSDPRYWYGKTQHSSLDQSSPPQSGVSTSYNHPVLGMYDAKDDFPLRKTASEPNLKLRSRLKQKVAERRSSPLLRRKDGPVVTALKKRPLDVTDSACSSAPGSGPSSPNNSSGSVSAENGIAPAVPSIPAETSLAHRLVAREGSAAPLPLYTSPSLPNITLGLPATGPSAGTAGQQDTERLTLPALQQRLSLFPGTHLTPYLSTSPLERDGGAAHSPLLQHMVLLEQPPAQAPLVTGLGALPLHAQSLVGADRVSPSIHKLRQHRPLGRTQSAPLPQNAQALQHLVIQQQHQQFLEKHKQQFQQQQLQMNKIIPKPSEPARQPESHPEETEEELREHQALLDEPYLDRLPGQKEAHAQAGVQVKQEPIESDEEEAEPPREVEPGQRQPSEQELLFRQQALLLEQQRIHQLRNYQASMEAAGIPVSFGGHRPLSRAQSSPASATFPVSVQEPPTKPRFTTGLVYDTLMLKHQCTCGSSSSHPEHAGRIQSIWSRLQETGLRGKCECIRGRKATLEELQTVHSEAHTLLYGTNPLNRQKLDSKKLLGSLASVFVRLPCGGVGVDSDTIWNEVHSAGAARLAVGCVVELVFKVATGELKNGFAVVRPPGHHAEESTPMGFCYFNSVAVAAKLLQQRLSVSKILIVDWDVHHGNGTQQAFYSDPSVLYMSLLRYDDGNFFPGSGAPDEVGTGPGVGFNVNMAFTGGLDPPMGDAEYLAAFRTVVMPIASEFAPDVVLVSSGFDAVEGHPTPLGGYNLSARCFGYLTKQLMGLAGGRIVLALEGGHDLTAICDASEACVSALLGNELDPLPEKVLQQRPNANAVRSMEKVMEIHSKYWRCLQRTTSTAGRSLIEAQTCENEEAETVTAMASLSVGVKPAEKRPDEEPMEEEPPL
modifications: Dominant negative mutant (H863L) of human histone deacetylase-4 (HDAC4) gene
[1]
  cell proliferation (number of cells): cell proliferation inhibition specific for Jurkat cells
[2]
  HDAC3 and N-CoR in the crudely purified fraction (complex forming ability): contained almost no HDAC3 or N-COR
[3]
  HDAC activity with histone as a substrate: decreased HDAC activity compared to wild-type HDAC4

Source: patent US20070123452A1, “Method of selecting novel immunosuppressant” (Astellas Pharma Inc., priority 2002, published 2007)
